Source: the supplement of paper PMC12764529
± gives the half width of the 95% confidence interval.

Experiment: folding stability dG unfold from chymotrypsin proteolysis; higher = more stable
Summary of the method: (§1)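 Only designs with AlphaFold2 dimer inter-PAE above 15 were retained; each was a mini-protein under 80 residues with no cysteine, in a PA-tagged cDNA display construct. After digestion with trypsin and chymotrypsin and sequencing, K50 was inferred by Bayesian fitting of counts, and unfolding free energy was derived per protease or combined against a sequence-predicted unfolded-state K50 and a shared folded-state K50.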
For “SAGGSALENLEENEYIVKIEIEKKNKKKIEIVIAGKPEKIKEIEKELKKKGFKILKIEPKKVKDVLSAGGSA [r15_640_TrMRF]”, the “folding stability dG unfold” value was 1.59 ± 0.066 kcal/mol.
With “SVEKAREALEEAGFEVTRIEVREDGTVRVTVRRDGKLVEIELTVEPPPPVEVVEEEPEVRVERRYSAEDLSA [r9_2_TrROS_Hall]” the “folding stability dG unfold” value was -0.34 ± 0.42 kcal/mol.
In the case of “SAETVTFRVGDVEIVARRLPDGYVVVTEKVPEEYPEAELVLSLVRVYPDGTVEVESRLYRIDPETGVIGSAG [r14_724_TrMRF]”, the “folding stability dG unfold” value is reported as 2.67 ± 0.053 kcal/mol.
For “SAMKTVTIKVTVEVTKNENGEEVKTVTVTLTLPEEEMTEEQLKELAKELADKLAEENNLTVKITKIEVTSAG [r14_190_TrROS_Hall]”, the “folding stability dG unfold” value was 2.93 ± 0.1 kcal/mol.
In the case of “SAGGSAGGSAILVPSPETAKKIMDELRKKTGAKVKMKPIGTGADGKEYYRIEVVPPDKPLDSAGGSAGGSAG [r3_59_TrMRF]”, the “folding stability dG unfold” value is reported as -0.118 ± 0.14 kcal/mol.
With “SAGGMPADTPVIPIEILDIRVEPDPESDSYTAEVKVRFPDGTEKTFTIKLPKDATLEDVIEKAKELAASAGG [r13_578_TrMRF]” the “folding stability dG unfold” value was 4.09 ± 0.11 kcal/mol.
In the case of “SAGGSAGGSAGGMVITVPKENLKELIDALRKEGKARIVSVEEKDGLVTITVELEDEELESAGGSAGGSAGGS [r10_695_TrROS_Hall]”, the “folding stability dG unfold” value is reported as 2.28 ± 0.075 kcal/mol.
For “SAGGSAGGSATATVTPHEGAWTVTVTGPDSTETFTFEADEETVREFVELLKAPDVDIDPVPGSAGGSAGGSA [r18_103_TrMRF]”, the “folding stability dG unfold” value was 1.12 ± 0.096 kcal/mol.
With “SAGGSAGGSAGGFNIEVVPGEPGWVIKIEFPDHPITAFVDPEDGKLWIYNPDNGMIFPLSAGGSAGGSAGGS [r10_434_TrROS]” the “folding stability dG unfold” value was 1.78 ± 0.084 kcal/mol.
With “SLSPSTPISSEEEAKEAAEKLAEEVREELGEDLPIVVDIERKELEDGTIVVKFTFYVPETGEKLLEVEVGSA [r9_794_JUSTAS]” the “folding stability dG unfold” value was 1.56 ± 0.049 kcal/mol.
For “SAGGSAGGSKPDEVEVIEIKVPPGARVRLPDGSVVEIKPGDPNTTYRIVVDKKNKKITIEPLDSAGGSAGGS [r12_338_TrROS_Hall]”, the “folding stability dG unfold” value was 1.43 ± 0.12 kcal/mol.

Experiment: folding stability dG unfold (combined trypsin and chymotrypsin); higher = more stable
Summary of the method: as §1
In the case of “SAGGSAGGSGGMTPTSRDYVLPNGEKLAVEETFTFPDGSSVTKVLDPKTGTTTTLPASTIASASAGGSAGGS [r12_488_JUSTAS]”, the “folding stability dG unfold” value is reported as 0.394 ± 0.11 kcal/mol.
With “SAGGSAGGMVKLKVYKIPESVPPELRALLEALVEGEGEVEVEPEEAEALLKLPGIEELEVEELESAGGSAGG [r6_381_TrMRF]” the “folding stability dG unfold” value was 1.59 ± 0.077 kcal/mol.
In the case of “SAGGGHMVNVTLTGSSIEEIKKELEELAKKYGFVINPKKVEKLPGPKYKITLNIKAPDEVVELIKKKSAGGS [r8_357_JUSTAS]”, the “folding stability dG unfold” value is reported as 1.72 ± 0.13 kcal/mol.
With “SAGGKKVIITKVETNKNGKKTYTVTLYYKDKKTNEWKKVAEFTFESKEEAENAAKELAKKLNLKIIPSAGGS [r16_512_TrROS_Hall]” the “folding stability dG unfold” value was 4.77 ± 0.11 kcal/mol.
For “SAIKIEEIKDVNPENKNIRIKIEMPGGPHEIPIPAKSEMDVEEALDLILDWFERHFPPGHKMRIEEIEISAG [r14_422_TrROS]”, the “folding stability dG unfold” value was 0.341 ± 0.1 kcal/mol.
In the case of “SATPYTFTLPDGYVIPAYKLPDGTVRVTAQYYDPVDRKPVGTYEATADPTDGTIELTFPNGDKATITLPDSA [r9_56_TrMRF]”, the “folding stability dG unfold” value is reported as 1.01 ± 0.09 kcal/mol.
In the case of “SAGGSAGGSMKLVTVKMKRPNGPVELTPVLPVDPSETLEEVKERVLELYPGAEITEITVTPDESAGGSAGGS [r12_738_JUSTAS]”, the “folding stability dG unfold” value is reported as 0.457 ± 0.15 kcal/mol.
With “SAGGSAGGSAGSPMSAEEVEERLREELRRELGPDYTVTVTVTEVLPEGVYVVSVTVTGPASAGGSAGGSAGG [r11_153_JUSTAS]” the “folding stability dG unfold” value was 2.21 ± 0.099 kcal/mol.
In the case of “SMRVVLVRPVPPELKEAELELRLPLPDGSEVEVKAETGEDFVVVTIELDDESAAEAVVEELEKLLEELLGSA [r9_790_TrMRF]”, the “folding stability dG unfold” value is reported as 1.13 ± 0.053 kcal/mol.
For “SAGGSAGGSAGGLVPPDAVIPTETTAEEPVYVIDPVTGELTPIGPGVVRRKITRRVPRPSAGGSAGGSAGGS [r10_1115_JUSTAS]”, the “folding stability dG unfold” value was 0.514 ± 0.11 kcal/mol.
In the case of “SSWEKLSTLTLPSTGLTVTFYYDPSTNSTAVKVTDGAGPELSEKVLSDDETFTLPDGVSIKLPKGAEPASSA [r9_340_JUSTAS]”, the “folding stability dG unfold” value is reported as 1.02 ± 0.081 kcal/mol.
In the case of “SAEVELKPDEELEFEFPDSQVKISYVPGTGVITTTTTFTTPDGTVVYKTTTIKKEGKEVTSTTVSLAEASSA [r9_881_JUSTAS]”, the “folding stability dG unfold” value is reported as 1.17 ± 0.12 kcal/mol.
With “SAGGSAGGMKKYKMTITFKTPDGTPVKEKTIYFNSEEEAKKAAEEIKKKELEPDTPVTVSKEPDSAGGSAGG [r6_286_JUSTAS]” the “folding stability dG unfold” value was 0.898 ± 0.069 kcal/mol.
With “SAGGSAGGSAAITIPVPPGETVTIKIEIEMTVPPNQRNPDGQRMKPGQKVRMEVTFTFRVDGSAGGSAGGSA [r18_450_TrROS]” the “folding stability dG unfold” value was 4.24 ± 0.13 kcal/mol.
For “SAGGMRLVFVTETPEEAEEIARELAELFPDFELEAEVREEEVLVEVPETGEVKRRPVYVLVIELRPKSAGGS [r16_828_TrMRF]”, the “folding stability dG unfold” value was 4.41 ± 0.079 kcal/mol.
With “SAGGSAGGSAGGTAEIYFPNFPIRIDSVQLSPEKNHVQVSMENPDGPPVKGTMPPKDGILSAGGSAGGSAGG [r7_427_TrROS]” the “folding stability dG unfold” value was 0.903 ± 0.042 kcal/mol.
With “SAGPMTLEILYKRPANEPFTLEDLELAKEVEEAVAALVPSKYKVRIKSIEYEKYPDYYYIRVTIEVEKPSAG [r5_121_TrMRF]” the “folding stability dG unfold” value was 4.64 ± 0.083 kcal/mol.
With “SAGGSAGGSETRVLVRPLDGAIVIEAYRRLPDGSWVLAERIVIPTKGDDPESIARAQEVIDKLSAGGSAGGS [r12_169_TrMRF]” the “folding stability dG unfold” value was 4.38 ± 0.078 kcal/mol.
With “SMSEKVEIDPAAIAEALKAGTEYEFDIKVTVTLFDPSNGKKVSTEEKVVKVKLKIPPPSPLPDPKNGYLLSA [r9_396_JUSTAS]” the “folding stability dG unfold” value was 1.29 ± 0.2 kcal/mol.
For “KKKIKKIEIEIKIPVKSIEEAKEEVEKLAKELKEKFPEIKKIKVEIIKYDEKKGYITVKITIEVNGKKIEFS [r1_52_TrROS_Hall]”, the “folding stability dG unfold” value was 1.52 ± 0.28 kcal/mol.
With “SAGGSAGGKIRVEVEVEPLPGPEEGGRLLRVRVRVYNENGELLEEIEFPARSPEEAEERLRKAASAGGSAGG [r6_974_TrMRF]” the “folding stability dG unfold” value was 3.15 ± 0.14 kcal/mol.
